{"source": "paper PMC4388636", "key": {"[1]": {"target": "toll like receptor-4 (human (endogenous in monocytes)) (UniProt O00206)", "sequence (O00206 24-839)": "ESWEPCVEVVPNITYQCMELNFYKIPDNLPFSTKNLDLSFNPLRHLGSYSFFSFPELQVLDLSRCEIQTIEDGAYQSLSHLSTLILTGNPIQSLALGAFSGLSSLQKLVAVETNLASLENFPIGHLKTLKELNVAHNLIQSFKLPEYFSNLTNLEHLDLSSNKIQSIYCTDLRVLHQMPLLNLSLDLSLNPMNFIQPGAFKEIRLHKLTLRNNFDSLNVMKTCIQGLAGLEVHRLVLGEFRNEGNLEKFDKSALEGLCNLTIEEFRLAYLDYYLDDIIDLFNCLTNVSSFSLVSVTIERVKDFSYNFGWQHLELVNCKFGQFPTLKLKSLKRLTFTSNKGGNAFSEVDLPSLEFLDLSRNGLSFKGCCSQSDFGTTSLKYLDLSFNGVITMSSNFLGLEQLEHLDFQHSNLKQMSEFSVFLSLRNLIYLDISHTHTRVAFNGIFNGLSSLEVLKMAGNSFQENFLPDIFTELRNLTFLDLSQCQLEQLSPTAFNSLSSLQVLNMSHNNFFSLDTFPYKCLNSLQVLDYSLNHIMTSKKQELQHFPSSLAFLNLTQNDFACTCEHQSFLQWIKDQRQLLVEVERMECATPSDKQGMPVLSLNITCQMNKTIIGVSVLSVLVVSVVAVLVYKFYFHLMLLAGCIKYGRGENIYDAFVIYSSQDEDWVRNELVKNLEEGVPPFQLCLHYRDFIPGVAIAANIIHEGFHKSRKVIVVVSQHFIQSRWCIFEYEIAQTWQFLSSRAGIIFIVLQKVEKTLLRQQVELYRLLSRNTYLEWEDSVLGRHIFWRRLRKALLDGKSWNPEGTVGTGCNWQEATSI"}, "[2]": {"target": "toll like receptor-4 (human (endogenous in monocytes)) (UniProt O00206)", "remark": "listed apart in the source"}, "[3]": {"target": "toll like receptor-4 (human (endogenous in monocytes)) (UniProt O00206)", "remark": "listed apart in the source"}, "[4]": {"target": "toll like receptor-4 (human (endogenous in monocytes)) (UniProt O00206)", "remark": "listed apart in the source"}}}
{"binder": "recombinant Wolbachia heat shock protein 60 (natural protein) MTNVVVSGEQLQEAFREVAVMVDSTVAITAGPRGKTVGINKPYGAPEITKDGYKVMKGIKPEKPLHAAITSIFAQSCFQCNDKVGDGTTTCSILTSNMIMEALKSIAAGNDRVSIKNGMQKAKDAVLEGITSMSRTIPLEKMDEVAQVAIISANGDKDIGNSIADAVKKVGKEGVITVEESKGSKELEVELTTGMQFDRGYLSPYFITSNEKMIVEFDDPYLLITEKKLSIIQPLLPILEAVVKSGKPLLIIAEDIEGEALSTLVINKLRGGLKVTAVKAPGFGDRRKEMLEDIAALTGAKYVIKDELGIKMEDLTLEDLGTAKNVKVTKDNTTIVSGSSDSDRVKARVEQIKSQIETSTSDYDKEKLRERLAKLSGGVAVLKVGGVTEVEVKERRDRVEDALHATRAAIEEGIVPGGGVALLYASSALDKLKGGSDEEQIGINIIKKVLSAPIKRLVKNAGLESAVIIDHLTKQNDKELIYNVEAMNYANAFTAGVIDPAKVVRIAFETAISVASVLITTESMIVDVPNKEENASSSMGAGGMGGMNGF", "values": [{"measurement": "ROS levels in monocytes after rWmhsp60, fluorimetry with DCF2-DA, fold change", "setting": "[1]", "value": 3, "unit": "fold"}, {"measurement": "loss of mitochondrial membrane potential in monocytes after rWmhsp60, fluorimetry with TMRE, fold change", "setting": "[1]", "value": 3, "unit": "fold"}, {"measurement": "dead monocytes (annexin-V-FITC-/PI+) after 24 h with rWmhsp60", "setting": "[2]", "value": 23, "unit": "%"}, {"measurement": "dead monocytes after rWmhsp60, with pretreatment by anti-TLR-4 monoclonal antibodies for 2 h", "setting": "[2]", "value": 6.5, "unit": "%"}, {"measurement": "late apoptotic monocytes (annexin-V-FITC+/PI+) after 24 h with rWmhsp60", "setting": "[2]", "value": 18, "unit": "%"}, {"measurement": "late apoptotic monocytes after rWmhsp60, with pretreatment by anti-TLR-4 monoclonal antibodies for 2 h", "setting": "[2]", "value": 6, "unit": "%"}, {"measurement": "dead monocytes after rWmhsp60, with rapamycin treatment before the stimulation", "setting": "[3]", "value": 7.5, "unit": "%"}, {"measurement": "late apoptotic monocytes after rWmhsp60, with rapamycin treatment before the stimulation", "setting": "[3]", "value": 6.5, "unit": "%"}, {"measurement": "SA-β-Gal–positive (senescent) monocytes after rWmhsp60", "setting": "[4]", "value": 78, "unit": "%"}, {"measurement": "SA-β-Gal–positive (senescent) monocytes after rWmhsp60, with rapamycin pretreatment", "setting": "[4]", "value": 10, "unit": "%"}]}
